Assays:
[1] = molecular target: T1, EGFR extracellular domain (human, UniProt P00533 25-645); experiment: Octet BLI, protein A biosensors, extracellular domain as antigen
T1 construct: extracellular domain; also called human EGFR; epidermal growth factor receptor
Protocol: (§1) The affinity of BxM wildtype and MaB40 was analysed using an Octet system with biosensors coated with protein A. As antigens, the extracellular domains of cMET and EGFR were used. Three different concentrations of antibody were tested to determine the affinity.

[2] = molecular target: T2, cMET extracellular domain (human, UniProt P08581 25-932); experiment: as above
T2 construct: extracellular domain; also called human c-MET
Protocol: as §1

Kd [1] [nM]	Kd [2] [nM]	Binder
5.3	0.35	BxM wt (B10v5 x hu225M SEED bispecific IgG without interface mutations) (bispecific antibody, By LC-ESI-MS the preparation held only 76% of the correctly paired form (12% + 12% light chain mispaired variants); also called BxM wildtype) heavy 1: not shown light 1: EPVLTQPPSVSVAPGETATIPCGGDSLGSKIVHWYQQRPGQAPLLVVYDDAARPSGIPERFSGSKSGTTATLTISSVEAGDEADYFCQVYDYHSDVEVFGGGTKLTVLGQPKAAPSVTLFPPSSEELQANKATLVCLISDFYPGAVTVAWKADSSPVKAGVETTTPSKQSNNKYAASSYLSLTPEQWKSHKSYSCQVTHEGSTVEKTVAPTECS heavy 2: EVQLVQSGAEVKKPGASVKVSCKASGFSLTNYGVHWMRQAPGQGLEWIGVIWSGGNTDYNTPFTSRVTITSDKSTSTAYMELSSLRSEDTAVYYCARALTYYDYEFAYWGQGTLVTVSSASTKGPSVFPLAPSSKSTSGGTAALGCLVKDYFPEPVTVSWNSGALTSGVHTFPAVLQSSGLYSLSSVVTVPSSSLGTQTYICNVNHKPSNTKVDKKVEPKSCDKTHTCPPCPAPELLGGPSVFLFPPKPKDTLMISRTPEVTCVVVDVSHEDPEVKFNWYVDGVEVHNAKTKPREEQYNSTYRVVSVLTVLHQDWLNGKEYKCKVSNKALPAPIEKTISKAKGQPREPQVYTLPPPSEELALNELVTLTCLVKGFYPSDIAVEWLQGSQELPREKYLTWAPVLDSDGSFFLYSILRVAAEDWKKGDTFSCSVMHEALHNHYTQKSLDRSPGK light 2: DIQMTQSPSSLSASVGDRVTITCRASQSIGTNIHWYQQKPGKAPKLLIKYASESISGVPSRFSGSGYGTDFTLTISSLQPEDVATYYCQQNYNWPTTFGQGTKVEIKRTVAAPSVFIFPPSDEQLKSGTASVVCLLNNFYPREAKVQWKVDNALQSGNSQESVTEQDSKDSTYSLSSTLTLSKADYEKHKVYACEVTHQGLSSPVTKSFNRGEC
2.9	0.42	BxM MaB40 (B10v5 x hu225M SEED bispecific IgG with K26D in CH1 and T18R in CL of hu225M) (bispecific antibody, Only the correctly paired form was detected by LC-ESI-MS; also called mutant BxM MaB40) heavy 1: not shown light 1: EPVLTQPPSVSVAPGETATIPCGGDSLGSKIVHWYQQRPGQAPLLVVYDDAARPSGIPERFSGSKSGTTATLTISSVEAGDEADYFCQVYDYHSDVEVFGGGTKLTVLGQPKAAPSVTLFPPSSEELQANKATLVCLISDFYPGAVTVAWKADSSPVKAGVETTTPSKQSNNKYAASSYLSLTPEQWKSHKSYSCQVTHEGSTVEKTVAPTECS heavy 2: EVQLVQSGAEVKKPGASVKVSCKASGFSLTNYGVHWMRQAPGQGLEWIGVIWSGGNTDYNTPFTSRVTITSDKSTSTAYMELSSLRSEDTAVYYCARALTYYDYEFAYWGQGTLVTVSSASTKGPSVFPLAPSSKSTSGGTAALGCLVDDYFPEPVTVSWNSGALTSGVHTFPAVLQSSGLYSLSSVVTVPSSSLGTQTYICNVNHKPSNTKVDKKVEPKSCDKTHTCPPCPAPELLGGPSVFLFPPKPKDTLMISRTPEVTCVVVDVSHEDPEVKFNWYVDGVEVHNAKTKPREEQYNSTYRVVSVLTVLHQDWLNGKEYKCKVSNKALPAPIEKTISKAKGQPREPQVYTLPPPSEELALNELVTLTCLVKGFYPSDIAVEWLQGSQELPREKYLTWAPVLDSDGSFFLYSILRVAAEDWKKGDTFSCSVMHEALHNHYTQKSLDRSPGK light 2: DIQMTQSPSSLSASVGDRVTITCRASQSIGTNIHWYQQKPGKAPKLLIKYASESISGVPSRFSGSGYGTDFTLTISSLQPEDVATYYCQQNYNWPTTFGQGTKVEIKRTVAAPSVFIFPPSDEQLKSGRASVVCLLNNFYPREAKVQWKVDNALQSGNSQESVTEQDSKDSTYSLSSTLTLSKADYEKHKVYACEVTHQGLSSPVTKSFNRGEC

Reference: patent publication US20190352429A1 (published 2019)
